In PMC10421103, “Efficiency Assessment between Entrapment and Covalent Bond Immobilization of Mutant β-Xylosidase onto Chitosan Support” (Polymers, 2023):

Substrate: O=[N+]([O-])c1ccc(O[C@@H]2OC[C@@H](O)[C@H](O)[C@H]2O)cc1
Assay: purified protein
Assay type: biochemical, Geobacillus stearothermophilus
Conditions: free enzyme, partially purified, 200 mM citrate-phosphate-glycine buffer pH 6.5, 50 °C, 0.22–2.00 mM substrate

B1: XynB2^Y509E (Geobacillus stearothermophilus; Y509E) (protein)
chain: MATNLFFNAHHSPVGAFASFTLGFPGKSGGLDLELARPPRQNVFIGVESPHEPGLYHILPFAETAGEDESKRYDIENPDPNPQKPNILIPFAKERIEREFRVATDTWKAGDLTLTIYSPVKAVPDPETASEEELKLALVPAVIVEMTIDNTNGTRTRRAFFGFEGTDPYTSMRRIDDTCPQLRGVGQGRILGIASKDEGVRSALHFSMEDILTATLEENWTFGLGKVGALIADVPAGEKKTYQFAVCFYRGGCVTAGMDASYFYTRFFHNIEEVGLYALEQAEVLKEQAFRSNELIEKEWLSDDQKFMMAHAIRSYYGNTQLLEHEGKPIWVVNEGEYRMMNTFDLTVDQLFFELKMNPWTVKNVLDFYVERYSYEDRVRFPGDETEYPGGISFTHDMGVANTFSRPHYSSYELYGISGCFSHMTHEQLVNWVLCAAVYIEQTKDWAWRDRRLTILEQCLESMVRRDHPDPEKRNGVMGLDSTRTMGGAEITTYDSLDVSLGQARNNLELAGKCWAAYVALEKLFRDVGKEELAALAREQAEKCAATIVSHVTEDGYIPAVMGEGNDSKIIPAIEGLVFPYFTNCHEALREDGRFGDYIRALRQHLQYVLREGICLFPDGGWKISSTSNNSWLSKIYLCQFIARRILGWEWDEQGKRADAAHVAWLTHPTLSIWSWSDQIIAGEISGSKYYPRGVTSILWLEEGE
notes: recombinant in E. coli C43 from plasmid pJAVI100 (xynB2 with Y509E); partially purified by heat treatment 45 °C and dialysis; GH52
In the case of B1, the Km is reported as 900 ± 100 µM and the Vmax is reported as 0.0011 µmol/min.
